Biological target: influenza virus nucleoprotein (NP), A/Victoria/3/75, wild type (influenza A virus A/Victoria/3/75)
Test: cryo-EM structure

For “influenza virus nucleoprotein (NP), A/Victoria/3/75, wild type (natural protein)”, the stoichiometry N was 9.
